As a reminder, the Kd is a measure of binding affinity in units of concentration. A low value points to higher affinity.

The values below come from US20090018029A1.

One test has as its target hIFN receptor. The experiment in a line: BIAcore biosensor; orientation not stated. For orientation: In SPR one partner is held on a chip, and binding of the other changes the refractive index at the surface.
Test [1] has as its target human growth hormone receptor on IM-9 cells (human) (UniProt P10912). Put plainly: cell-based or functional assay.
Sequence of UniProt P10912 (P10912 19-638): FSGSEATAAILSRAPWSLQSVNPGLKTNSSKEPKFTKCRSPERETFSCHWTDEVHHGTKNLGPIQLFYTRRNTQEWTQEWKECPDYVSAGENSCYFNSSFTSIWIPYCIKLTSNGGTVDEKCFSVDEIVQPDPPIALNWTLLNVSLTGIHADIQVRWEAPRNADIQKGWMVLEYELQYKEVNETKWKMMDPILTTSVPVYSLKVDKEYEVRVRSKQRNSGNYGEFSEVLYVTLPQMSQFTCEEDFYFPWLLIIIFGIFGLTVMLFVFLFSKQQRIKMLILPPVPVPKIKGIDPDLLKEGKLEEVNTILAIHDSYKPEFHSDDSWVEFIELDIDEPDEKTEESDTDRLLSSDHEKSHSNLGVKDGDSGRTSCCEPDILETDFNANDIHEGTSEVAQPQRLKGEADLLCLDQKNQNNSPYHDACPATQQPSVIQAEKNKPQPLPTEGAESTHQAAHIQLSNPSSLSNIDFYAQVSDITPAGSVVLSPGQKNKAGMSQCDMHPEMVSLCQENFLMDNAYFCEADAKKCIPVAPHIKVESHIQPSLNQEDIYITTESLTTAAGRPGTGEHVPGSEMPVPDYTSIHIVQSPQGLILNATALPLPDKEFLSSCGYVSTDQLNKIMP

The substance “6His-E96pAF IFNα2A (from UniProt P01563 24-188) (ligand)” gave a Kd with hIFN receptor of 12 nM.

As to “6His-E107pAF IFNα2A (from UniProt P01563 24-188) (ligand)”, the dissociation constant (Kd) with hIFN receptor turned out to be 5 nM.

Regarding “6His-E113pAF IFNα2A (from UniProt P01563 24-188) (ligand)”, the Kd with hIFN receptor is 19 nM.

Consider “6His-E159pAF IFNα2A (from UniProt P01563 24-188) (ligand)”, for which the equilibrium dissociation constant (Kd) in the test with hIFN receptor turned out to be 3.5 nM. This Kd lies about 5.4-fold lower than the previous one.

In turn, “6His-F27pAF IFNα2A (from UniProt P01563 24-188) (ligand)” came in with a Kd with hIFN receptor of 8 nM.

“6His-F38S IFNα2A (from UniProt P01563 24-188) (ligand)”: the dissociation constant (Kd) in the test with hIFN receptor came to 42 nM.

In the test with hIFN receptor, “6His-G37pAF IFNα2A (from UniProt P01563 24-188) (ligand)” returned a dissociation constant (Kd) of 12 nM. Against the preceding substance, the Kd is about 3.5-fold lower.

Turning to “6His-H34pAF IFNα2A (from UniProt P01563 24-188) (ligand)”, in the test with hIFN receptor, the Kd turned out to be 4 nM.

For the substance “6His-I24pAF IFNα2A (from UniProt P01563 24-188) (ligand)”, the dissociation constant (Kd) with hIFN receptor worked out at 5 nM. This Kd and that of the substance before are within 1.5-fold of each other.

Regarding “6His-I100pAF IFNα2A (from UniProt P01563 24-188) (ligand)”, in the test with hIFN receptor, the dissociation constant (Kd) turned out to be 10 nM. This Kd is about 2-fold higher than that of the substance before.

Turning to “6His-IFNα2A (from UniProt P01563 24-188) (ligand)”, the Kd with hIFN receptor came to 6 nM.

With “6His-K31pAF IFNα2A (from UniProt P01563 24-188) (ligand)”, the equilibrium dissociation constant (Kd) with hIFN receptor worked out at 52 nM.

The substance “6His-K49pAF IFNα2A (from UniProt P01563 24-188) (ligand)” yielded a Kd in the test with hIFN receptor of 10 nM.

Turning to “6His-K134pAF IFNα2A (from UniProt P01563 24-188) (ligand)”, in the test with hIFN receptor, the dissociation constant (Kd) is 10 nM.

“6His-L110pAF IFNα2A (from UniProt P01563 24-188) (ligand)” displayed a Kd with hIFN receptor of 13 nM.

In the test with hIFN receptor, “6His-L117pAF IFNα2A (from UniProt P01563 24-188) (ligand)” showed a dissociation constant (Kd) of 8 nM.

In the test with hIFN receptor, “6His-P39pAF IFNα2A (from UniProt P01563 24-188) (ligand)” gave a Kd of 17 nM.

Consider “6His-P109pAF IFNα2A (from UniProt P01563 24-188) (ligand)”, for which the Kd with hIFN receptor stood at 17 nM.

In the test with hIFN receptor, “6His-Q48pAF IFNα2A (from UniProt P01563 24-188) (ligand)” had a Kd of 17 nM.

“6His-R12pAF IFNα2A (from UniProt P01563 24-188) (ligand)” returned a Kd in the test with hIFN receptor of 8 nM.

For “6His-R120pAF IFNα2A (from UniProt P01563 24-188) (ligand)”, the Kd in the test with hIFN receptor amounted to 4 nM.

As for “6His-R125pAF IFNα2A (from UniProt P01563 24-188) (ligand)”, the Kd with hIFN receptor stood at 19 nM. Compared with the last substance, the Kd is about 4.8-fold higher.

As for “6His-R149pAF IFNα2A (from UniProt P01563 24-188) (ligand)”, in the test with hIFN receptor, the dissociation constant (Kd) was determined as 75 nM.

As to “6His-T106pAF IFNα2A (from UniProt P01563 24-188) (ligand)”, the dissociation constant (Kd) with hIFN receptor is 8 nM. Compared with the last substance, the Kd is about 9.4-fold lower.

In turn, “6His-Y89pAF IFNα2A (from UniProt P01563 24-188) (ligand)” had a dissociation constant (Kd) with hIFN receptor of 9 nM.

Take “6His-Y122S IFNα2A (from UniProt P01563 24-188) (ligand)”: the dissociation constant (Kd) with hIFN receptor was found to be 300 nM. Compared with the last substance, the Kd is about 33-fold higher.

The substance “C1S E107pAF IFNα2A (from UniProt P01563 24-188) (ligand)” registered an equilibrium dissociation constant (Kd) with hIFN receptor of 9 nM.

In turn, “C1S IFNa2A (from UniProt P01563 24-188) (ligand)” came in with a dissociation constant Kd with hIFN receptor of 11 nM. This Kd and that of the substance before are within 1.5-fold of each other.

The substance “Sigma IFNαA (from UniProt P01563 24-188) (ligand)” showed a Kd with hIFN receptor of 11 nM.

With “rat growth hormone, wild type (from UniProt P01244 27-216) (ligand)”, the EC50 of STAT5 phosphorylation in IM-9 cells (phospho-STAT5 MFI, flow cytometry) in test [1] was over 200000 nM.
